Measured values published in patent US20090137484A1, “Neuronal Network-Interacting Peptide” (NATIONAL UNIVERSITY OF SINGAPORE, priority 2004, published 2009).
Blank lines part the entries; values can stand above or below the molecule they belong to. Where a SMILES comes first, the peptide text is derived from it. Where no end group is shown, it is not given here.

B1: Nogo-A (32-200) (other)
chain: EDEEEEEEEEEEDEDEDLEELEVLERKPAAGLSAAPVPTAPAAGAPLMDFGNDFVPPAPRGPLPAAPPVAPERQPSWDPSPVSSTVPAPSPLSAAAVSPSKLPEDDEPPARPPPPPPASVSPQAEPVWTPPAPAPAAPPSTPAAPKRRGSSGSVDETLFALPAASEPVI
notes: Recombinant, cloned into pET32a and expressed in E. coli
B4: third Grb4 SH3 domain, Grb4 residues 199-257 (other, human, UniProt O43639 199-257, looked up)
chain: VVQTLYPFSSVTEEELNFEKGETMEVIEKPENDPEWWKCKNARGQVGLVPKNYVVVLSD
modifications: also: His-tag, sequence and removal not given here, 15N-labelled
notes: range 199-257; Expressed in E. coli as a His-tagged protein; It was 15N-labelled for NMR; also called SH3_3

Experiments:
[1] = target: T1, Grb4 SH3_2 (second SH3 domain, Grb4 residues 115-170) (Homo sapiens, UniProt O43639); test: 1H-15N NMR HSQC titration of Nogo fragments with Grb4 SH3_2; format: binding; settings: for Binding detected by NMR: Grb4 fragment SH3_2
T1 construct: corresponding to the human Grb4 residues 5-61; 115-171 and 199-257 respectively; His-tag; made in house; host or cells: E. coli BL21
T1 sequence (O43639 115-171): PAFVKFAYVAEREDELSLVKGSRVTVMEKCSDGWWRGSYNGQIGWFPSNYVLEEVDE
Method: (§1) All calorimetric titrations were performed on a Microcal VP ITC machine (Microcal, USA). The protein/peptide samples were dissolved in the 50 mM Tris buffer (pH 7.0), with 3 mM 2-mercaptoethanol. After centrifugation for 15 min, the samples were degassed for 15 min to avoid the bubble formation. The Grb4 SH3 samples with a concentration of 0.025 or 0.05 mM were placed in the 1.4 ml reaction cell and 1.0 mM Nogo samples were loaded into the […] injection syringe. All titrations were performed at 25° C. and the obtained data was fitted using the ORIGIN software (Originlab Corporation). NMR experiments were performed on a 500 MHz Bruker DRX spectrometer equipped with an actively shielded cryoprobe and an 800 MHz Bruker Avance spectrometer (Sattler, M., et al., (1999) Prog. NMR Spectrosc. 34, 93-158.). NMR data was processed with NMRPipe (Delaglio, F et al., (1995) J. Biomol. NMR 6, 277-293) and analysed with NMRView (Johnson, B. A. & Blevins, R. A. (1994). J. Biomol. NMR 4, 603-614.).
The ^1H-^15N HSQC titration experiments were conducted according to our previous procedure (Song J. (2003) J Biol Chem. 278, 24714-20). For structure determination, backbone sequential assignments were achieved by analysing HNCACB, CBCA(CO)NH, HNCO experiments while side chain assignments were obtained from (H)CC(CO)NH, H(CCO)NH, HCCH-TOCSY, ^15N-edited TOCSY-HSQC and NOESY-HSQC. Structure determination of the third Grb4 SH3 domain was conducted by a standard CNS (Crystallography and NMR System) protocol as described in our previous publication (Li M, et al., 2004, Eur J. Biochem. 271, 3512-22) with NOE constraints derived from ^15N- and ^13C-NOESY spectra and dihedral angle constraints from TALOS prediction using 5 different chemical shifts. The accepted NMR structure with the lowest energy was selected for analysis and manipulation to generate FIG. 1 by use of MolMol graphic software (Koradi, R., et al., (1996) J. Mol. Graphics. 14, 51-55.). […]

[2] = target: T2, Grb4 SH3_3 (third SH3 domain, Grb4 residues 199-257) (Homo sapiens, UniProt O43639); test: 1H-15N NMR HSQC titration of Nogo fragments with Grb4 SH3_3; format: binding; settings: two-fold excess of the peptide (FIG. 1b)
T2 construct: corresponding to the human Grb4 residues 5-61; 115-171 and 199-257 respectively; His-tag; made in house; host or cells: E. coli BL21
T2 sequence (O43639 199-257): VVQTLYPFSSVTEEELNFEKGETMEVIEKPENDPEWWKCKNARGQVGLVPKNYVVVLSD
Method: as §1
(§2) The ^1H-^15N HSQC titration experiments were conducted according to our previous procedure (Song J. (2003) J Biol Chem. 278, 24714-20). […]
To further validate the identified binding interaction, we determined the solution structure of the third Grb4 SH3 domain by use of heteronuclear tripleresonance NMR methodology as described briefly in Examples 1 and 2. […]

[3] = target: T3, Grb4 SH3_3 (third SH3 domain, Grb4 residues 199-257) (Homo sapiens, UniProt O43639); test: Isothermal titration calorimetry of Nogo fragments with Grb4 SH3_3; format: binding
T3 construct: corresponding to the human Grb4 residues 5-61; 115-171 and 199-257 respectively; His-tag; made in house; host or cells: E. coli BL21
T3 sequence (O43639 198-256): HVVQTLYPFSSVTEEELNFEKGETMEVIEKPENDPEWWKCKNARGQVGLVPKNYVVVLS
Method: as §1
Both Nogo-A (1-200) and Grb4 (115-257) were further dissected into different Nogo fragments and two different […] domains based on sequence alignment as detailed in Table 1 and the interactions among them were studied first by NMR HSQC titration followed by isothermal titration calorimetry (ITC) to obtain thermodynamic parameters of the binding interaction. As presented in Table 2, two complete sets of thermodynamic parameters were derived from ITC measurements, one set for the interaction between Nogo-A (32-200) and the third Grb4 SH3 domain and another set for the interaction between the 11-residue Nogo-A (171-181) and the third Grb4 SH3 domain. […] Many factors account for this observation. One possibility is that in the Nogo-A (32-200) protein, this 11-residue binding region is less accessible. Alternatively, the presence of other regions without any significant contribution to the binding will unavoidably reduce the binding affinity.

[4] = target: T4, Grb4 SH3_23 (second and third SH3 domains, Grb4 residues 115-257) (Homo sapiens, UniProt O43639); test: Isothermal titration calorimetry of Nogo fragments with Grb4 SH3_23; format: binding; settings: Grb4 fragment SH3_23
T4 construct: Grb4 (115-257) containing the second and third SH3 domains were expressed; His-tag; made in house; host or cells: E. coli BL21
T4 sequence (O43639 115-257): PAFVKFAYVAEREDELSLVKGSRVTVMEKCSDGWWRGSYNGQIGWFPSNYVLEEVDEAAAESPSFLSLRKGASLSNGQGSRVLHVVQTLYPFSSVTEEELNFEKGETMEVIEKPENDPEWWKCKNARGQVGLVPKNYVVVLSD
Method: as §1
(§3) Both Nogo-A (1-200) and Grb4 (115-257) were further dissected into different Nogo fragments and two different […] domains based on sequence alignment as detailed in Table 1 and the interactions among them were studied first by NMR HSQC titration followed by isothermal titration calorimetry (ITC) to obtain thermodynamic parameters of the binding interaction. […]

[5] = target: T1, Grb4 SH3_2 (second SH3 domain, Grb4 residues 115-170); test: Isothermal titration calorimetry of Nogo fragments with Grb4 SH3_2; format: binding; settings: Grb4 fragment SH3_2
Method: as §1, §3

[6] = target: B4; test: ITC at 25 C, Nogo in syringe, SH3_3 (25 µM) in cell, Tris pH 7.0; parameters: ΔS: unit not given here
Method: as §1

[7] = target: B4; test: ITC, comparison of the two sets of Table 2
Method: as §1

[8] = target: B4; test: ITC at 25 C, peptide in syringe, SH3_3 (50 µM) in cell, Tris pH 7.0; parameters: ΔS: unit not given here
Method: as §1

[9] = target: T4, Grb4 SH3_23 (second and third SH3 domains, Grb4 residues 115-257); test: 1H-15N NMR HSQC titration of Nogo fragments with Grb4 SH3_23; format: binding; settings: four-fold excess of unlabelled Nogo protein; pH 6.8, 20° C. (FIG. 2)
Method: as §1, §2
The present inventors also determined whether a cross-talk existed between Nogo and Eph receptor-ephrinB mediated signalling networks, and whether Grb4 was the convergence point. […]

Nogo-A (32-200) = target: B1; test: ITC at 25 C, Nogo in syringe, SH3_3 (25 µM) in cell, Tris pH 7.0; parameters: ΔS: unit not given here
Method: as §1

[10] = ITC at 25° C., Tris pH 7.0, Nogo in syringe, SH3_3 in cell (25 or 50 μM)

Molecule: B1
- Binding detected by NMR [1]: Very weak
- Binding detected by ITC [4]: Very weak
- Binding detected by ITC [5]: Very weak
- Ka [3, 10]: 11500 ± 2200 M⁻¹
- Kd [3, 10]: 87 µM
- Stoichiometry n [6]: 1.13
- ΔH [6]: 69.6 kcal/mol
- ΔS [6]: 252

B3: Nogo-A (1-200): recombinant N-terminal fragment of human Nogo-A, residues 1-200, expressed in E. coli (protein)
chain: MEDLDQSPLVSSSDSPPRPQPAFKYQFVREPEDEEEEEEEEEEDEDEDLEELEVLERKPAAGLSAAPVPTAPAAGAPLMDFGNDFVPPAPRGPLPAAPPVAPERQPSWDPSPVSSTVPAPSPLSAAAVSPSKLPEDDEPPARPPPPPPASVSPQAEPVWTPPAPAPAAPPSTPAAPKRRGSSGSVDETLFALPAASEPVI
- Shifts of HSQC peaks of 15N-labeled Grb4 (115-257) [9]: significant shifts of the HSQC peaks
- Binding detected by NMR [1]: Very weak

Molecule: B4
- Ka (Nogo-A (32-200)): 11500 M⁻¹
- Kd (Nogo-A (32-200)): 87 µM

Results, then the molecule that gave them:

- Binding with the second Grb4 SH3 domain (specificity statement) [1]: no significant binding
- HSQC peaks of the 15N-labeled third SH3 domain undergoing a significant shift [2]: ~50%
- Ka [3, 10]: 357000 ± 21000 M⁻¹
- Kd [3, 10]: 2.8 µM
- Stoichiometry n [3, 10]: 0.95 ± 0.068
- ΔH [3, 10]: −3,310 ± 499 cal/mol
- ΔS [3, 10]: 14.3 cal/(mol·K)
- Binding affinity to the third Grb4 SH3 domain relative to Nogo-A (32-200) ([3]; higher than Nogo-A (32-200)): about 30 fold
Molecule: CC(=O)N[C@@H](CO)C(=O)N[C@H](C(=O)N1CCC[C@H]1C(=O)N[C@@H](C)C(=O)N[C@@H](C)C(=O)N1CCC[C@H]1C(=O)N[C@@H](CCCCN)C(=O)N[C@@H](CCCNC(=N)N)C(=O)N[C@@H](CCCNC(=N)N)C(=O)NCC(=O)N[C@@H](CO)C(N)=O)[C@@H](C)O [Nogo-A (171-181), Ac-STPAAPKRRGS-NH2] (Ac-STPAAPKRRGS-NH2)

- Binding detected by ITC ([3]; Grb4 fragment SH3_3): Very weak
Molecule: Ac-ARPPPPPPAS-NH2 [Nogo-A (141-150), chemically synthesised peptide, fragment 141-150 of Nogo A]

- fold higher binding affinity than Nogo-A (32-200) [7]: ~30 fold
- Ka [8]: 357000 M⁻¹
- Stoichiometry n [8]: 0.95
- ΔH [8]: -3.31 kcal/mol
- ΔS [8]: 14.3
B2: Nogo-A (171-181) Ac-STPAAPKRRGS-NH2 (peptide)
peptide: Ac-STPAAPKRRGS-NH2
notes: Chemically synthesised by the Fmoc method; also called 11-residue Nogo-A (171-181) peptide
